This is an account of results in patent US20170073664A1.

What all share (assay): cell_activity
In series [1] the test system is AAVS-SBI TALEN left (pZT-AAVS1 L1). The settings on record: pair with right TALEN, 300 ng donor; control 111.
Series [2] relates to eGFP-TALEN-18-right. The following applies: pair; clone 6F HEK293; control 324; 95.6% positive in flow.
Series [3] has as its system eGFP-TALEN-18-Left. The following applies: pair; clone 6F HEK293; control 324; 95.6% positive in flow.
Series [4] deals with AAVS original TALEN left. The settings on record: pair with right TALEN, HEK293F, 300 ng donor; control 111.
Series [5] concerns AAVS original TALEN right. The settings on record: pair with left TALEN, HEK293F, 300 ng donor; control 111.
For series [6], the system named is AAVS-SBI TALEN right (pZT-AAVS1 R1). The following applies: pair with left TALEN, 300 ng donor; control 111.

In series [1], “CCCCTCCACCCCACAGT (double strand) [AAVS left half-site without first T]” came in with an activity (blasticidin-resistant colonies) of 2800. Sequence “CGAGGAGCTGTTCA (double strand) [eGFP TALEN right half-site (TALEN reads complement)]” yielded an activity (blasticidin colonies per 10^6 cells) in series [2] of 1080.

The sequence “TCCACCGGTCGCCA (double strand) [eGFP TALEN left half-site]” displayed an activity (blasticidin colonies per 10^6 cells) in series [3] of 1080. “TCCCCTCCACCCCACAGT (double strand) [AAVS left TALEN half-site]”: in series [4], the activity (blasticidin-resistant colonies) was 1420. Turning to “TTTTCTGTCACCAATCCT (double strand) [AAVS right TALEN half-site]”, the activity (blasticidin-resistant colonies) in series [5] is 1420; in series [6] it was 2800.
